In patent US20210277110A1 (Janssen / Centocor, published 2021):
Where two headings read alike, the source gives them in different places.

Key:
[1] = target: T1, Extracellular domain of cyno PD1 (cPD1-ECD) (Macaca fascicularis (cynomolgus)); experiment: SPR ProteOn, captured mAb, cynoPD1-ECD analyte
T1 construct: Expressed with a hexahistidine tag or as Fc fusion; also called cynoPD1-ECD; cynoPD-1-ECD
T1 chain: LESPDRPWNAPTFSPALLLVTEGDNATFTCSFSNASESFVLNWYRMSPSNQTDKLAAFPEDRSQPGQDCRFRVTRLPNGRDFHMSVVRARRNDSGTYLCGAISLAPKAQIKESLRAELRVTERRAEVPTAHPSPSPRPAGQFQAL
Method: (§1) Affinity measurements using Surface Plasmon Resonance (SPR) were performed using a ProteOn XPR36 system. A biosensor surface was prepared by coupling a mixture of anti-IgG Fc modified alginate polymer layer surface of a GLC chip using the manufacturer instructions for amine-coupling chemistry. […] The collected data were processed and fitted to a Langmuir 1:1 binding model. The result for each mAb was reported in the format of kₒₙ (On-rate), koff (Off-rate) and KD (equilibrium dissociation constant).
(§2) STDEV were calculated for 3 or more replicates generated for human and cyno proteins. If less than 3 replicates were calculated, RANGE was indicated. RANGE is defined as the low and high values for the replicates tested. For samples in the Table 10 or Table 11 without value indicated in RANGE or STDEV, only one experiment was performed.

[2] = target: T1, Extracellular domain of cyno PD1 …; experiment: SPR ProteOn, cynoPD1-ECD; RANGE low replicate
Method: as §1, §2

[3] = target: T2, Extracellular domain of human PD1 (huPD1-ECD) (human, UniProt Q15116 25-169, biotinylated in the ligand inhibition assay (sites not given)); experiment: SPR ProteOn, captured mAb, huPD1-ECD analyte; approximation (chi2 > 20%)
T2 construct: Expressed with a hexahistidine tag or as Fc fusion; also called biotinylated PD-1

[4] = target: T1, Extracellular domain of cyno PD1 …; experiment: SPR ProteOn, cynoPD1-ECD; RANGE high replicate
Method: as §1
(§3) STDEV were calculated for 3 or more replicates generated for human and cyno proteins. If less than 3 replicates were calculated, RANGE is indicated. RANGE is defined as the low and high values for the replicates tested. For samples without RANGE or STDEV, only one experiment was performed

[5] = target: T1, Extracellular domain of cyno PD1 …; experiment: SPR ProteOn, cynoPD1-ECD; RANGE low replicate; RANGE low replicate
Method: as §1, §3

[6] = target: T1, Extracellular domain of cyno PD1 …; experiment: SPR ProteOn, captured mAb, cynoPD1-ECD analyte
Method: as §1, §3

[7] = target: T2, Extracellular domain of human PD1 …; experiment: MSD ligand inhibition, competitor coated huPDL2-ECD
Method: (§4) The ligand inhibition assay design was MSD (Mescoscale Discovery) based. A MSD plate was directly coated with ligand (cynoPDL1-ECD, huPDL1-ECD or huPDL2-ECD) and incubated overnight at 4° C. The following day, the coating solution was removed and the plate was blocked. […] Depending on the panel of antibodies to be tested, the antibodies were tested as titrations or at a fixed concentration.

[8] = target: T1, Extracellular domain of cyno PD1 …; experiment: SPR ProteOn, cynoPD1-ECD; RANGE high replicate
[9] = target: T1, Extracellular domain of cyno PD1 …; experiment: SPR ProteOn, cynoPD1-ECD; RANGE high replicate; RANGE high replicate
Method: as §1, §2

[10] = target: T2, Extracellular domain of human PD1 …; experiment: MSD ligand inhibition, competitor coated huPDL1-ECD
Method: as §4

[11] = target: T2, Extracellular domain of human PD1 …; experiment: MSD ligand inhibition, competitor coated cynoPDL1-ECD
Method: as §4

[12] = target: T2, Extracellular domain of human PD1 …; experiment: SPR ProteOn, huPD1-ECD; RANGE low replicate; RANGE low replicate
Method: as §1, §3

[13] = target: T2, Extracellular domain of human PD1 …; experiment: SPR ProteOn, comparison with PD1B114
[14] = target: T1, Extracellular domain of cyno PD1 …; experiment: SPR ProteOn, comparison with PD1B114
[15] = target: T2, Extracellular domain of human PD1 …; experiment: MSD ligand inhibition, competitor coated cynoPDL1-ECD; remark: listed apart in the source
Method: The ligand inhibition assay design was MSD (Mescoscale Discovery) based. A MSD plate was directly coated with ligand (cynoPDL1-ECD, huPDL1-ECD or huPDL2-ECD) and incubated overnight at 4° C. The following day, the coating solution was removed and the plate was blocked. […] Depending on the panel of antibodies to be tested, the antibodies were tested as titrations or at a fixed concentration. […] The mAbs that were positive for inhibition of ligand binding at one concentration were also tested in dose responses for inhibition of various PD-1 ligands.
Select Fabs were cloned as IgG2sigma isotype and characterized for their Jurkat cell binding and cynomolgus PD-L1 ligand inhibition at concentrations 1 μg/ml and 10 μg/ml.

[16] = target: T3, Full length human PD1 (huPD1) on cells (human, UniProt Q15116 25-288); experiment: flow cytometry, PHA-stimulated Jurkat cells
T3 construct: on T cells of human donors in the MLR and CMV assays (functional); also called PD-1 on Jurkat cells
Method: (§5) Jurkat cells were stimulated overnight with 20 ng/ml of PHA, harvested, washed, and checked for viability. The cells were then incubated at 6-10° C. for 45-60 minutes with various concentrations of test antibodies, washed and incubated at 6-10° C. for 45-60 minutes with FITC-labeled goat anti-human IgG. The cells were washed and fixed with BD Cytofix, refrigerated overnight and analyzed on a MACSQuant flow cytometer. The percentage of PD-1 positive cells at each antibody concentration was plotted vs log of the antibody concentration and EC₅₀ values were generated in Prism.

[17] = target: T2, Extracellular domain of human PD1 …; experiment: SPR ProteOn, huPD1-ECD; RANGE high replicate
Method: as §1, §3

[18] = target: T2, Extracellular domain of human PD1 …; experiment: SPR ProteOn, captured mAb, huPD1-ECD analyte
Method: as §1, §2

[19] = target: T2, Extracellular domain of human PD1 …; experiment: SPR ProteOn, huPD1-ECD; RANGE low replicate
Method: as §1, §3

[20] = target: T3, Full length human PD1 (huPD1) on cells; experiment: flow cytometry, PHA-stimulated Jurkat cells; remark: listed apart in the source
Method: as §5

[21] = target: T1, Extracellular domain of cyno PD1 …; experiment: SPR ProteOn, cynoPD1-ECD; RANGE high replicate; RANGE high replicate
Method: as §1, §3

[22] = target: T2, Extracellular domain of human PD1 …; experiment: SPR ProteOn, captured mAb; antigen species not given
[23] = target: T1, Extracellular domain of cyno PD1 …; experiment: SPR ProteOn, cynoPD1-ECD; RANGE low replicate
Method: as §1, §3

[24] = target: T2, Extracellular domain of human PD1 …; experiment: SPR ProteOn, captured mAb, huPD1-ECD analyte; remark: listed apart in the source
Method: as §1, §3

[25] = target: T2, Extracellular domain of human PD1 …; experiment: SPR ProteOn, huPD1-ECD; RANGE high replicate; RANGE high replicate
Method: as §1, §3

T2 sequence (Q15116 25-169 limits assumed): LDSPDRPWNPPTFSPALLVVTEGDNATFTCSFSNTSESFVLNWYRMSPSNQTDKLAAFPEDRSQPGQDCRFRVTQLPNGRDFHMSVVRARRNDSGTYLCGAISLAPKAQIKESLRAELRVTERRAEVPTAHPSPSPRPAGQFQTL
T3 sequence (Q15116 25-288 limits assumed): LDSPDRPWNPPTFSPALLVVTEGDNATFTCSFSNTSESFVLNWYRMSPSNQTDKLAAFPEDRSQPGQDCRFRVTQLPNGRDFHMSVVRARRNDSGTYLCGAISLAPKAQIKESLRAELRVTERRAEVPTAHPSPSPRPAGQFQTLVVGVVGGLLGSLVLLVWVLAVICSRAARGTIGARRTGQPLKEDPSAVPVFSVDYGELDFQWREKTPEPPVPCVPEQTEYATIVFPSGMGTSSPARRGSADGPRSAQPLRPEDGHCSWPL

B1: PD1B11 (antibody, V domains shown)
VH: QVQLVQSGAEVKKPGSSVKVSCKASGGTFSSYAISWVRQAPGQGLEWMGGIIPIFGTANYAQKFQGRVTITADESTSTAYMELSSLRSEDTAVYYCARPGLAAAYDTGSLDYWGQGTLVTVSS
VL: EIVLTQSPATLSLSPGERATLSCRASQSVSSYLAWYQQKPGQAPRLLIYDASNRATGIPARFSGSGSGTDFTLTISSLEPEDFAVYYCQQRSNWPLTFGQGTKVEIK
notes: Tested as IgG2sigma/kappa; also called PD1H3/PH9L3
- Kd [1]: 31.3 nM
- koff [1]: 0.00917 s⁻¹
- kon [1]: 293000 M⁻¹ s⁻¹
- Kd [2]: 27.7 nM
- koff [2]: 0.008 s⁻¹
- kon [2]: 285000 M⁻¹ s⁻¹
- Kd [3]: ~17 nM
- Kd [4]: 27.1 nM
- kon [4]: 350000 M⁻¹ s⁻¹
- koff [5]: 0.00938 s⁻¹
- Kd [6]: 26.9 nM
- koff [6]: 0.00942 s⁻¹
- kon [6]: 350000 M⁻¹ s⁻¹
- IC50 [7]: 0.029 µg/mL
- Kd [8]: 35.1 nM
- koff [9]: 0.01 s⁻¹
- kon [9]: 301000 M⁻¹ s⁻¹
- IC50 [10]: 0.019 µg/mL
- IC50 [11]: 0.017 to 0.018 µg/mL
- koff [12]: 0.00867 s⁻¹
- fold tighter affinity compared to PD1B114 [13]: ~3 fold
- fold tighter affinity compared to PD1B114 [14]: ~2 fold
- percentage ligand not blocked at 1 µg/ml [15]: 5%
- percentage ligand not blocked at 10 µg/ml [15]: 5%
- EC50 [16]: 0.05 µg/mL
- Kd [17]: 9.81 nM
- koff [18]: 0.00852 s⁻¹
- kon [18]: 516000 M⁻¹ s⁻¹
- Kd [19]: 9.6 nM
- kon [19]: 884000 M⁻¹ s⁻¹
- EC50 [20]: 0.03 to 0.24 µg/mL
- koff [21]: 0.00946 s⁻¹
- Kd [22]: 19.2 nM
- koff [22]: 0.00896 s⁻¹
- kon [22]: 468000 M⁻¹ s⁻¹
- Kd [23]: 26.8 nM
- kon [23]: 349000 M⁻¹ s⁻¹
- Kd [24]: 9.7 nM
- koff [24]: 0.00905 s⁻¹
- kon [24]: 933000 M⁻¹ s⁻¹
- koff [25]: 0.00943 s⁻¹
- kon [25]: 982000 M⁻¹ s⁻¹
